We go through 41 sequences from the nanobody polyreactivity screen of Harvey et al. (2022).

This data set in a line: yeast display, Sf9 membrane polyspecificity reagent, FACS + sequencing; frameworks hold sequencing errors. In short, it runs like this:
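Nanobodies came from a synthetic yeast display library in Saccharomyces cerevisiae BJ5465, induced with galactose for 36–48 hours and stained for 1 hour at 4 °C with 10% biotinylated, detergent-solubilized Sf9 membrane reagent. Cells were enriched on streptavidin microbeads and then FACS-sorted, with low and high (top ~1%) gates set on anti-HA fluorescence for expression and streptavidin fluorescence for reagent binding. Each polyreactivity label reflects the gate a clone came from. Genes were amplified by colony PCR, sequenced by MiSeq 2 × 250 and filtered by CDR length.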
Turning to “QVQLQESGVRLVQAGGSLRLSCAASGPISRRSTMGWYRQAPGKERELVTAITRGTNTNYADSVKGRFTISRDNAKNTEYLQMNSLKPEDTAVYYCAAYGVLKPSRGDAVFHRYWGQGTQVTVSS”, the “polyreactivity (PSR sort gate)” value is recorded as “low polyreactivity”.
For the sequence “QVQLQESRGGLVQAGGSLRLSCAASGSITHYIFMGWYRQAPGKEREFVAGIGYGGTTNYADSVKGRFTISRDNAKNTVFLQMNSLKPEDTAMYYCAAREATEFYLYYWGQGTQVTVSS”, the “polyreactivity (PSR sort gate)” value is on record as “low polyreactivity”.
As for “QVQLQESSGGLVQAGGSLRMSCAASGTIFHFHIMGWYRQAPGKEREFVAAISYGTSTYYADSVKGRFTISRDNAKNTVYLQMNSQKPEDTGVYYCAVYDYLEVYCWYWGQGTQVTVSS”, the “polyreactivity (PSR sort gate)” value is recorded as “low polyreactivity”.
Regarding “QVQLQESSGGLVQAGGTLRMSCAASGTIFHFHIMGWYRQAPGKEREFVAAISYGTSTYYADSVKCRFTISRDNAKNTVFLQMNSQNPEDNEVYYCAVYDYLEVYCWYWGQGTQVTVSS”, the “polyreactivity (PSR sort gate)” value was “low polyreactivity”.
Turning to “QVQLQESVGGLVQACGSQRLICAASGYIFSHQYMGCYRQAPGKERELVASMSPGATTNYADRVKGRFTISRDNAKNTVYLQMNSLKTEDTAVYYYAVYQILDRRLSYWGQGTQVTVSC”, the “polyreactivity (PSR sort gate)” value is on record as “high polyreactivity”.
Consider “QVQLQESVGGLVQAGGSLRLSCAASGNIFPTHRMGWYRQAPGKELEFVATISDGGSTNYADSVKGRFTISRDHAKNTVYLQMNSLKPEDTAVYYCAVLSLGRLRHYYWGQGTQVTVSS”, for which the “polyreactivity (PSR sort gate)” value is given as “low polyreactivity”.
For “QVQLQGSGGGLAQAGDSLRLSCAASGTIFSEYNNGLVSPGAGQRTRTCCRYWCWGNTYYADSAKGRFTTSRDNAKNTVYLQKHSLKPADTAVYYCAFNRPFPSRHIYRGQGTQVTVSS”, the “polyreactivity (PSR sort gate)” value is “high polyreactivity”.
As for “QVQLQGSGGGLAQAGDSLRLSCAASGTIFSEYNNGLVSPGAGQRTRTCCRYWCWGNTYYADSAKRRFTTSRDNAKNTLYLQKNSLKPEDTAVYYCAFNRPYPSRHIYRGQGTQVTVSS”, the “polyreactivity (PSR sort gate)” value is on record as “high polyreactivity”.
Take “QVQLQGSGGGLVQAGGSLRLSCAASGNIFDADIMAWYRQAPGKESELVASITDGGSTNYADSVKGRFTISRDNAKNTVYLQMNSLKQEDTAVYYCADIAYPDIPTYFDYDSDCFYWSQGTQVTVSS”: the “polyreactivity (PSR sort gate)” value is “high polyreactivity”.
As to “QVQLVASGGGLLQAGGSLRLSCAASGRILRVYAMGWYRPAPGKESELVAAITWRGGSTYYADSVKGRFTISRDNAKNTVYLQMNSLKPEDTAVYYCAAEAYSYGYSALLYDYWGQGTQVTVSS”, the “polyreactivity (PSR sort gate)” value is listed as “high polyreactivity”.
Consider “QVQLVASGGGLVHAGASLRLSCAASGRIFTGNVMGWYRQAHWKERELVAAISVSGGRTYYADSVKGRFTISRDYAKNTVYLQMNSLKPVDSAVYYCNARYSRVWYGGDYWGQGTQVTVSS”, for which the “polyreactivity (PSR sort gate)” value was “high polyreactivity”.
The result for “QVQLVASGGGLVQAGGSLRISCAASGSIIYYYAMGWYRHAPRKERELVAAISTSSGRTYYADSVKGRFTISRDNAKNTVYLQMNSLKPEDTAVYYCANEIPFTRYTWPRYNYWGQGTQVTVSS” reads “high polyreactivity”.
For the sequence “QVQLVASGGGLVQAGGSLRLRCAASGFIFRYNTMGWYRQAPGKEREMVAVINRGGSTYYADSVKGRFTISRDNAKNTVYLQLNSLKAEDTGVYDCNVAKFGRYYYWGQGTQVTVSS”, the “polyreactivity (PSR sort gate)” value is listed as “high polyreactivity”.
In the case of “QVQLVASGGGLVQAGGSLRLSCAASGFIVSVYAMGWYRQAPGKERELVAVISTSGGRTYYADSVKGRFTISRDNAQNTVYLQMNSLKPEDTAVYYCAADGFQYTLGNYYWGQGTHVTVSS”, the “polyreactivity (PSR sort gate)” value is on record as “high polyreactivity”.
In the case of “QVQLVASGGGLVQAGGSLRLSCAASGLIIRYYAMGWYRQAPGKEREFVAAITWNGGSTYADSVKGRFTISRDNAKNTVNLQMNSLIPEDTAVYYCAADLSYWDDFDYSGQGTQVTVSS”, the “polyreactivity (PSR sort gate)” value is on record as “low polyreactivity”.
On to “QVQLVASGGGLVQAGGSLRLSCAASGSTFARYAMGWYTPAPGKERELVAAITEGGDRTSYADSVKGRFTISRDNAKNHVYLQMHSLKPEDTAVYYCAAERRYESWYFGYRTMDYWGQGTQVTVSS”, for which the “polyreactivity (PSR sort gate)” value was “low polyreactivity”.
For the sequence “QVQLVASGGGLVQAGGSLRLSCAASGSTFDIYAMGWYRQAPGKERELVAAISVSDVYTYYADSVKGRFTISRDNAKNTVYLQMNSLKPEDTAVYYCAAETPTHDEWGQGTQVTVSS”, the “polyreactivity (PSR sort gate)” value is listed as “high polyreactivity”.
Consider “QVQLVASGGGLVQAGGSLRLSCAASGSTFTQNAMGWDRPAPGQEREVVAAISWSGARTYYADSVKGRFTISRHNAKNTVYLQMNSRKPEDPAVYDCNNYARKRGTTYDYWGHGTQVTVSS”, for which the “polyreactivity (PSR sort gate)” value is “high polyreactivity”.
Turning to “QVQLVASGGGLVQAGGSLRLSCAASGSTLDVYAMGWYRQAPGKERELVASISGSGGRTYYADSVKGRFTISRDNAKNTVYLQLNSQNPEDTAVYYCAADVRSYVASRSYRYDYWGQGNQVTVSS”, the “polyreactivity (PSR sort gate)” value is “low polyreactivity”.
Regarding “QVQLVASGGGLVQAGGSLRLSCAATGSIFYFYAMGWYRPAPWKERELVAAITDCGASTRYADSVKGRFTISRDNAKNTVYLQMNSLKPEDTAVYYCAAVRYHISYREYYWGQGTQVTESS”, the “polyreactivity (PSR sort gate)” value is recorded as “high polyreactivity”.
As to “QVQLVASGGGLVQAGGTLRLSCAASGRIFGRYGMGWYSQAPGKERELVAAISRSGDRTYYADSVKGRFTISRDNAKNTVYLPMNSLKPEDTAVYYCAAYSYRYDYWGQGTQVTVAS”, the “polyreactivity (PSR sort gate)” value was “high polyreactivity”.
Take “QVQLVASGGGLVQSGGSLRLSCAASGLTFEQYAMGWYRQAPGKERELVAAISRRGTSTYYADSVKARFTISRDYAKNYVYLQMNSRKPEDTAVYYCNAGWWYLGSPFDRDYWGQGTLVTVSS”: the “polyreactivity (PSR sort gate)” value is “high polyreactivity”.
For the sequence “QVQLVDSCGGLVQAGGSLRLSCYDSGSTFPYKAMGWYRQAPGKERELVAAITSGASTNYADSVKGRFTISRDNAKNTVYLQMNSLTPEDTAVYYCAAQSYGKRIWSPRFQLNYWGQGTQVTVSS”, the “polyreactivity (PSR sort gate)” value is given as “low polyreactivity”.
As to “QVQLVDSGGCLFQAGGTLRLSCAASGFTLRAYAMGWYRQGPGKEREFVAVISRSDGSTYYADTVKGRFTISRENAKNTVYLQMNSLKPEDSAVYYCADKHRGAKYDYWGQGTQVTVSS”, the “polyreactivity (PSR sort gate)” value was “low polyreactivity”.
For “QVQLVDSGGCLVQAGGSLRLSCAASGRTDGINAMGWYRQAPGKERELVAAIDSIDGTTYYADSVKGRFTISRDNAKNTVYLQMNSLKQEDTAVYYCAAEFISSYDYWGQGTQVTVSS”, the “polyreactivity (PSR sort gate)” value was “high polyreactivity”.
Next, “QVQLVDSGGCLVQAGGSLRLSCAASGRTFYRYAMGWYRQAPGKEREFVARITTSGGSTYYADSVKGRFTISRDNAKNTVYLKMNSLKPEDTEVYYCNARGVTYAFFRFDYWGQGTQVTVSS”: “high polyreactivity”; “QVQLVDSGGGIVQAGGSLRLSCPASGSTFGSYALGWSRQKPGKEREWVAAITSAGSTNYADSVKGRFTISRDNAKNTVYLQMNSLKPEDTAVYYCNDVRYYSYQYDPEVTHRYGYWGQGSQVTVSS”: “high polyreactivity”.
Consider “QVQLVDSGGGLDQAGGSLPLSCAASGSTFVAYAMGWYRQAPGKERELVADNSTSDGSTRYADSVKGRFTISRDNAKNTVYLQMNSLKPEDTAVYYCAAGSEYYSYGGVRFSFYYWGQGTQVTVSS”, for which the “polyreactivity (PSR sort gate)” value is listed as “low polyreactivity”.
As to “QVQLVDSGGGLDQAGGSLRLSCAAAGSIFYSYAMGWYSQATGKDSELVADISSDGSTNYADSVKGRFTISRDNAKNTVYVQINSLKPEDTAVYYCAKKPSSARYVTIGFDEWGHGTQVTVSS”, the “polyreactivity (PSR sort gate)” value was “low polyreactivity”.
Turning to “QVQLVDSGGGLFQPGGSLRLSCAASGSTFSDNAMGWYRQAPGKERELVASISSDDGSTYADSVKGRFTISRDNAMNTVYLQMNSLKSEDTAVYYCAADGFLAIYAAEYDYWGQGTQVTVSS”, the “polyreactivity (PSR sort gate)” value is recorded as “low polyreactivity”.
In the case of “QVQLVDSGGGLVPAGGSLRLSCAASGFTFTRYVMGWYRQAPGKERELVAAISGSGGSTNYADSVKGRFTISRDNAKNTVYLQMNSLKPEDTAVYYCAVGYRGWDGYWGQGTQVTVSS”, the “polyreactivity (PSR sort gate)” value is reported as “high polyreactivity”.
For “QVQLVDSGGGLVQAGGGLRLSCAASGRIFVKYGMGWYRQAPGKERELVAAISWTGGSTYYADSVKGRFTISRDNEKNTVYLQMNSLKPEDTAVYYCAKSFGIWHARWLTYDYWGQGTQVTVSS”, the “polyreactivity (PSR sort gate)” value is listed as “low polyreactivity”.
As for “QVQLVDSGGGLVQAGGILRLSCAASGRTFWIYAMGWYRQAPGKERQLVAAITGSGGSTYYADSVKGRFTISRDNAKNTGYLQMICLKPEDTAVYYCNARVPDCYKWSAYYSHDYWGQGTQVTVSS”, the “polyreactivity (PSR sort gate)” value is given as “low polyreactivity”.
With “QVQLVDSGGGLVQAGGILRLSSPASGSTFKYYTMGRSRQAPGKEREWVAGITLSGPTTYYADSVKGRFTISRDNAKNTVYLQMNSLKPEDTAVYYCAADYYHDFNAYYYWGQGTQVTVSS”, the “polyreactivity (PSR sort gate)” value is listed as “low polyreactivity”.
For the sequence “QVQLVDSGGGLVQAGGRLRLSCAASGFIFGRNAMGWYRQAPGKERELVAGISSSGVRTFYADSVKGRFTISRDNAKNTVYLQMNSLKPEDNAVYYCATRGRVYPTKYSLDEDYWGQGTQVTVSS”, the “polyreactivity (PSR sort gate)” value is given as “high polyreactivity”.
The result for “QVQLVDSGGGLVQAGGRLRLSCAASGSTFGHNAMGWYRQAPGKERQLLAAISRSGGITYYADSVKGRFTISRDNAKNTVYLQLNSLKPEDTAVYYCAADAWFSLRYAPRSYAYGYWGQGTQVTVSS” reads “low polyreactivity”.
Consider “QVQLVDSGGGLVQAGGRLRLSCAPSGLTFARNAMGWYIQAPGKERELVAAISRSGGRTSYADSVKGRFTISRDIAKNTVYVQMNSLKPVDTAVYYCAARSDVYSHDYWGQGTQVTVSS”, for which the “polyreactivity (PSR sort gate)” value is given as “high polyreactivity”.
With “QVQLVDSGGGLVQAGGRLRLSCDASGLTLYKNGLGWYRLEPVKERELFAVISRSGGRTYYADSVKGRFTISRDNAKNTVYLQFNSLKPEETAVYYCAARGIGPTKYDYLGQGTQVTVSS”, the “polyreactivity (PSR sort gate)” value was “high polyreactivity”.
Next, “QVQLVDSGGGLVQAGGSHRLSCAASGLTYHQYAMGWYRQAPGKERELVAAITSDGASTNYADSVKGRFTISRDNAKNTVYLQMISLKPEDTAVYYGAARRRSRQYRYDYWGQGTQVTVSS”: “high polyreactivity”; “QVQLVDSGGGLVQAGGSLRFSCAASGRTSNVYAMGWFRQAPGKERELVAAISARDGTTYNADSVKGRFTISRDNAKNTVYLQMNSLKPEDTAVYYCAAAVLSYADYYYDYEYWGQGTQVTVSS”: “high polyreactivity”.
On to “QVQLVDSGGGLVQAGGSLRISCAASGRNFGYNAMGSYRQAPGKERELVAAISSGGSTYYADSVKGLFTISRDNAKNTVYLQINSLKPEDTAVYFCAAEDYPPYPTDYDYWGQGSQVTVSS”, for which the “polyreactivity (PSR sort gate)” value is recorded as “low polyreactivity”.
